Ten molecules from patent publication US20230312686A1 (Bristol-Myers Squibb, published 2023) can be followed below.

B1: ADX_6093_A01 alkylated (non-binding control) (designed binder)
chain: MGVSDVPRDLEVVAATPTSLLISWDAPAVTVRYYRITYGETGGNSPVQEFTVPGSKSTATISGLKPGVDYTITVYAVTGRGESPASSKPISINYRTPCHHHHHH
modifications: C-terminal cysteine alkylated with iodoacetamide
B2: ADX_6077_F02 alkylated (designed binder)
chain: MGVSDVPRDLEVVAATPTSLLISWSDDYHAHRYYRITYGETGGNSPVQEFTVPGEHVTATISGLKPGVDYTITVYAVTYDGEKAATDWSISINYRTPCHHHHHH
modifications: C-terminal cysteine (of PC) alkylated with iodoacetamide
notes: also called alkylated (capped) Adnectin; alkylated parent
B3: ADX_6077_F02 DG→SG mutant, alkylated (designed binder)
chain: VSDVPRDLEVVAATPTSLLISWSDDYHAHRYYRITYGETGGNSPVQEFTVPGEHVTATISGLKPGVDYTITVYAVTYSGEKAATDWSISINYRTPC
modifications: C-terminal cysteine alkylated
notes: also called P1-055668
B4: ADX_6077_F02 DG→DA mutant, alkylated (designed binder)
chain: GVSDVPRDLEVVAATPTSLLISWSDDYHAHRYYRITYGETGGNSPVQEFTVPGEHVTATISGLKPGVDYTITVYAVTYDAEKAATDWSISINYRTPC
modifications: C-terminal cysteine alkylated
notes: also called P1-055660; PI-055660
B5: ADX_6077_F02 DG→AG mutant, alkylated (designed binder)
chain: B4 chain with D79A, A80G
modifications: C-terminal cysteine alkylated
notes: also called P1-055669
B6: ADX_6077_F02 DG→DL mutant, alkylated (designed binder)
chain: B4 chain with A80L
modifications: C-terminal cysteine alkylated
notes: also called P1-055671
B7: ADX_6077_F02 DG→DS mutant, alkylated (designed binder)
chain: B4 chain with A80S
modifications: C-terminal cysteine alkylated
notes: also called P1-055667
B8: ADX_6077_F02 DG→EG mutant, alkylated (designed binder)
chain: B4 chain with D79E, A80G
modifications: C-terminal cysteine alkylated
notes: also called P1-055673
B9: ADX_6077_F02 DAR1 AdxDC (GPC3-tubulysin Adnectin drug conjugate) (designed binder)
chain: B2 chain
modifications: tubulysin analog-linker (formula IV) conjugated through its maleimide to the C-terminal cysteine (DAR1)
notes: also called GPC3 AdxDC DAR1; ADX_6077_F02-961
B10: ADX_6093_A01-961(DAR2) (designed binder)
10Fn3 domain: MGVSDVPRDLEVVAATPTSLLISWDAPAVTVRYYRITYGETGGNSPVQEFTVPGSKSTATISGLKPGVDYTITVYAVTGRGESPASSKPISINYRTPCPPPPPCHHHHHH
modifications: the two C-terminal cysteines each carry the tubulysin analog-linker of formula (IV) (Drug/linker (2x), DAR2)
notes: It is the DAR2 counterpart of m12

Substitutions are numbered along the chain they refer to.

The EC50 is the concentration that produces a half-maximal response. By Kd is commonly meant the equilibrium constant for the complex coming apart. By koff is commonly meant the first-order rate constant of dissociation. In general, kon refers to a measure of how fast the partners come together.

T2 sequence (Q8CFZ4 25-557 limits assumed, form in doubt): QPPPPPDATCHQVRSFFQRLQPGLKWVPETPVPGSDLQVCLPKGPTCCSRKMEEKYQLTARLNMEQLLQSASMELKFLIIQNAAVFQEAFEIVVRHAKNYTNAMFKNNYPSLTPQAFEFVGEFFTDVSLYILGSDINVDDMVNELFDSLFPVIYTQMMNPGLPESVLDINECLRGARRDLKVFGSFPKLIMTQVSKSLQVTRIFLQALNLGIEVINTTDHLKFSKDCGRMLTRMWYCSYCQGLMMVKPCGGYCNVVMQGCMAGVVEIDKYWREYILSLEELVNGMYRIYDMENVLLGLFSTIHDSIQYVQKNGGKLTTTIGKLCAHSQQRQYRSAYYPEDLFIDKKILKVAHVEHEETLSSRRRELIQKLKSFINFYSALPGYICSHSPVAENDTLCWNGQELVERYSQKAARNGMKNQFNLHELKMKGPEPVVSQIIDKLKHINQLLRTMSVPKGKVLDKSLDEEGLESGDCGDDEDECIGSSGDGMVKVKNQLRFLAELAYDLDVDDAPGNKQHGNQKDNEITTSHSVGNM

For the first assay, the target named is T1, Human glypican-3 on cells (Huh7, Hep3B, H446, Hep3B xenograft tissue) (human, UniProt P51654 25-554).
T1 construct: Endogenous GPC3 of human tumour cell lines; also called huGPC3 on cells; GPC3 receptor
T1 sequence (P51654 25-554 limits assumed): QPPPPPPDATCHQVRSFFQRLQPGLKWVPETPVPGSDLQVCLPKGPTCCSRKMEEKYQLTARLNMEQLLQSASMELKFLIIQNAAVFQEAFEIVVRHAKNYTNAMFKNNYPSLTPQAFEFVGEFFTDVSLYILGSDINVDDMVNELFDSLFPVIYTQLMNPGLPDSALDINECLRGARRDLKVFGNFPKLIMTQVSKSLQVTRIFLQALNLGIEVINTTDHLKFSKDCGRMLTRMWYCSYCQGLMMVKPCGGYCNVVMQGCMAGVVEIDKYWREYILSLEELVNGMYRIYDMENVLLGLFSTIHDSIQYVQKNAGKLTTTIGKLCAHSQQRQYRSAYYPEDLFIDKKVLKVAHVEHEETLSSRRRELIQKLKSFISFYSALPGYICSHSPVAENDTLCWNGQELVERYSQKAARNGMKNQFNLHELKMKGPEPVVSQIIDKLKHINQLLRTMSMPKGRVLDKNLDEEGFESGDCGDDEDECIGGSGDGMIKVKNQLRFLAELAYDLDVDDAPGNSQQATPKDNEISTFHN
As to the kind of experiment: flow cytometry on Huh7 cells, alkylated Adnectin. On the technique in general: Flow cytometry measures light scatter and fluorescence of single cells or particles in a stream.
Take B1: the EC50 is > 200 nM.
In turn, B2 showed a 50% effective concentration (EC50) of 5 nM.

Another assay has as its target T2, Recombinant murine glypican-3 (aa 25-557), R&D Systems (murine, UniProt Q8CFZ4 25-557).
T2 construct: also called muGPC3; Mu GPC3-His
Kind of assay: SPR, as in the previous Examples. How it is done:
(§1) For off-rate measurements, single 200 nM adnectin/AdxDC concentrations were injected using identical conditions. One 30s injection of 10 mM glycine pH 1.7 was used to remove bound adnectin and regenerate the GPC3 surfaces between assay cycles.
(§2) Rate constants kₐ (kₒₙ) and kd (koff) were derived from reference-subtracted sensorgrams fit to a 1:1 binding model in Biacore T100 Evaluation Software v2.0.4 (GE Healthcare). The affinity constant, KD was calculated from the ratio of rate constants kd/kₐ.
(§3) FITC Labeling: ADX_6077_F02 and non-binding control Adnectin were reduced with DTT or TCEP followed by G25 gel filtration chromatography or dialysis. Excess Fluorescein-5-maleimide reagent (Thermo Scientific) was then added and the mixture incubated at room temperature for approximately 2 hours followed by G25 gel filtration chromatography or extensive dialysis (3-4 buffer changes). The resulting degree of labeling was measured by absorbance following the manufacturer's instructions and/or by mass spectrometry. The binding affinities of FITC-labeled and PEGylated […] for human and murine GPC3 was evaluated as described in the previous Examples, and the results are summarized in Table 13.
In general terms: Surface plasmon resonance follows binding to a sensor surface in real time, without labels.
Turning to B2, the dissociation constant (Kd) was 3.69 nM, the off-rate (koff) is 0.000453 s⁻¹ and the kon stood at 123000 M⁻¹ s⁻¹.

The target of a further assay is T3, Recombinant human glypican-3 (aa 1-559), His-tagged, R&D Systems (human, UniProt P51654 25-559).
T3 construct: also called huGPC3; Hu GPC3-His
T3 sequence (P51654 other isoform, or with tags, fused parts or gaps): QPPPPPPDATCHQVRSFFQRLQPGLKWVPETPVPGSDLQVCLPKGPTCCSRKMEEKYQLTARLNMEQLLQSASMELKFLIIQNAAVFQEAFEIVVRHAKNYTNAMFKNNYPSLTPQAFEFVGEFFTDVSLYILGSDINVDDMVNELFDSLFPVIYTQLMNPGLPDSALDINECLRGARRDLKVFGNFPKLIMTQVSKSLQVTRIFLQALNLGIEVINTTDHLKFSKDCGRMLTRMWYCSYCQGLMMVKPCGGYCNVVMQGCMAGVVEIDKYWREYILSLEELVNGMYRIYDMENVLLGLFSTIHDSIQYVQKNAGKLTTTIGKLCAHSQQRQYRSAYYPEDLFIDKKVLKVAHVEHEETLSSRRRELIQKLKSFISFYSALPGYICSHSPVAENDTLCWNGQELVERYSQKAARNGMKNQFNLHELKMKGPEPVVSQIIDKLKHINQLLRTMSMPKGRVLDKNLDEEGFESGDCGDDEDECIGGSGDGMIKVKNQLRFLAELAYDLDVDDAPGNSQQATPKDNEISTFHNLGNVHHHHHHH
As to the kind of experiment: SPR, as in the previous Examples. How it is done: as §1, §2, §3
As for B2, the dissociation constant Kd turned out to be 5.88 nM, the koff was 0.000524 s⁻¹ and the on-rate constant (kon) was found to be 89000 M⁻¹ s⁻¹.

In another assay the target is T1, Human glypican-3 on cells (Huh7, Hep3B, …). As to the kind of experiment: flow cytometry on Huh7 cells. How it is done: The binding of DG variants to huGPC3 in DG GPC3 AdxDCs mutants were evaluated by flow cytometry for binding to Huh7 carcinoma cells grown in DMEM media with 10% FBS. Cells were harvested using Versene, an EDTA cell dissociation solution from Lonza, Cat. #17-711E. Tumor cells (1E5 cells/reaction) were suspended in FACS buffer (PBS, 1% BSA, 0.05% Na Azide) and mixed with a serial dilution of AdxDC for one hour on ice. Cells were washed three times with FACS buffer, and bound AdxDC was detected with an in house anti-scaffold monoclonal Ab and PE-conjugated Antibody from (RnD Systems), cat #NL007, and read on a flow cytometer.
Take B3: the “huGPC3 on cells EC50 (mutant/parent)” value was 1.1 fold.
On the same count and under the same terms, then B4, with 1.3 fold.
On the same count and under the same terms, the figure for B5 is 1.1 fold.
Same read-out and setting: then B6, with 1.7 fold; and B7, with 1.4 fold.
For B8, the “huGPC3 on cells EC50 (mutant/parent)” value was found to be 1.6 fold.

The next assay shares this target. Kind of assay: cell-based or functional assay.
Regarding B9, the “AdxDC cell-killing IC50” value was found to be 0.2 nM.

The next assay has as its target T2, Recombinant murine glypican-3 (aa …). Kind of assay: SPR, Biacore T100, GPC3-His immobilised, 1:1 fit. How it is done:
(§4) The binding affinities of the alkylated GPC3 DG mutant adnectins for human and murine GPC3 were further evaluated by Biacore T100 using HBS-P+ running buffer with direct immobilization of human and mouse GPC3 proteins [Hu (Fc 2,3) and Mu (Fc 4) GPC3-His (R&D Systems)] with a 200-1.56 nM series injected for 180s association, 600s dissociation.
Regarding B3, the “Fold affinity (KD) difference vs alkylated parent” value (“Fold affinity (KD) difference” below) was 4.1 fold, the Kd was determined as 16 nM, the off-rate constant (koff) is 0.002 s⁻¹ and the on-rate constant (kon) was determined as 130000 M⁻¹ s⁻¹.
For B4, the “Fold affinity (KD) difference” value was 4.3 fold, the dissociation constant Kd was 16 nM, the koff is 0.0017 s⁻¹ and the kon was found to be 100000 M⁻¹ s⁻¹.
The like results for B5 were, in that order, 4 fold, 15 nM, 0.0021 s⁻¹ and 140000 M⁻¹ s⁻¹.
For B6, the “Fold affinity (KD) difference” value is 3.8 fold, the dissociation constant Kd is 15 nM, the off-rate constant (koff) turned out to be 0.0015 s⁻¹ and the kon came out at 100000 M⁻¹ s⁻¹.
On the same counts, the results for B7 are 3.9 fold, 15 nM, 0.0015 s⁻¹ and 100000 M⁻¹ s⁻¹.
For B8, the “Fold affinity (KD) difference” value was 5.1 fold, the Kd is 19 nM, the koff was determined as 0.0021 s⁻¹ and the kon was 110000 M⁻¹ s⁻¹.
The like results for B2 were, in that order, 1 fold, 3.8 nM, 0.00049 s⁻¹ and 130000 M⁻¹ s⁻¹.

A further assay concerns the target T3, Recombinant human glypican-3 (aa …). Kind of assay: SPR, Biacore T100, GPC3-His immobilised, 1:1 fit. How it is done:
as §4
As for B3, the “Fold affinity (KD) difference” value stood at 4.2 fold, the dissociation constant Kd was found to be 23.5 nM, the koff stood at 0.00221 s⁻¹ and the kon was 94000 M⁻¹ s⁻¹.
For the molecule B4, the “Fold affinity (KD) difference” value came out at 4.5 fold, the dissociation constant (Kd) turned out to be 25.4 nM, the koff was determined as 0.00183 s⁻¹ and the association rate constant (kon) came to 72200 M⁻¹ s⁻¹.
On the same counts, the results for B5 are 4.2 fold, 23.7 nM, 0.00243 s⁻¹ and 103000 M⁻¹ s⁻¹.
Regarding B6, the “Fold affinity (KD) difference” value was determined as 3.9 fold, the Kd is 21.9 nM, the koff stood at 0.00159 s⁻¹ and the kon was 72600 M⁻¹ s⁻¹.
As to B7, the “Fold affinity (KD) difference” value came out at 4.2 fold, the Kd was 23.3 nM, the dissociation rate constant (koff) was found to be 0.00166 s⁻¹ and the kon amounted to 71600 M⁻¹ s⁻¹.
With B8, the “Fold affinity (KD) difference” value came out at 5.3 fold, the Kd is 30 nM, the koff turned out to be 0.00229 s⁻¹ and the kon stood at 76300 M⁻¹ s⁻¹.
The like results for B2 were, in that order, 1 fold, 5.6 nM, 0.000534 s⁻¹ and 95300 M⁻¹ s⁻¹.

A further assay deals with T2, Recombinant murine glypican-3 (aa …). As to the kind of experiment: SPR 1-point off-rate, alkylated mutant vs parent.
In the case of B3, the “muGPC3 koff (mut/par)” value amounted to 4.8 fold.
As to B4, the “muGPC3 koff (mut/par)” value was found to be 3.7 fold.
With B5, the “muGPC3 koff (mut/par)” value came to 5.5 fold.
Still for that read-out and setting: then B6, with 3.1 fold; and B7, with 3.3 fold.
On the same count and under the same terms, then B8, with 5.1 fold.

Another assay addresses T3, Recombinant human glypican-3 (aa …). As to the kind of experiment: SPR 1-point off-rate, alkylated mutant vs parent.
B3: the “huGPC3 koff (mut/par)” value came out at 5.2 fold.
The same measure, in the same setting: the figure for B4 is 3.9 fold; for B5 it is 5.9 fold.
In the case of B6, the “huGPC3 koff (mut/par)” value stood at 3.6 fold.
For B7, the “huGPC3 koff (mut/par)” value worked out at 3.5 fold.
Same read-out and setting: then B8, with 5.4 fold.

In the next assay the target is T1, Human glypican-3 on cells (Huh7, Hep3B, …). Kind of assay: flow cytometry on Hep3B cells, His Tag PE antibody. How it is done:
GPC3 AdxDC were evaluated by flow cytometry for binding to human Hep3B hepatocellular carcinoma cells grown in MEM with 10% FBS, and H446 small cell lung carcinoma cells grown in RPMI with 10% FBS. Cells were harvested using Cellstripper, a non-enzymatic cell dissociation solution from Mediatch (Corning: Manassas, VA 20109), Cat. #25-056-CL. Tumor cells (25,000/reaction) were suspended in FACS buffer (PBS+5% FBS+0.01% NaN₃) and mixed with a serial dilution of AdxDC for 1 hour on ice. Cells were washed three times with FACS buffer, and bound AdxDC was detected with His Tag PE-conjugated Antibody from R&D System, cat #IC050P, and read on a flow cytometer.
On to B10, for which the binding result is listed as “no binding (tested: about 30 nM)”.

The target in the next assay is T2, Recombinant murine glypican-3 (aa …). Kind of assay: SPR, Biacore T100, 37 C, GPC3 immobilised, DAR1 AdxDC. How it is done: as §1, §2
With B9, the Kd amounted to 11 nM and the koff is 0.00077 s⁻¹.

The next assay deals with T3, Recombinant human glypican-3 (aa …). The assay is described as above. How it is done:
as §1, §2
As for B9, the Kd was 12 nM and the dissociation rate constant (koff) was 0.00098 s⁻¹.
